# Experimental data taken from US20210024610A1 (Hoffmann-La Roche, published 2021).
# Like-named read-outs stand apart in the source and are kept apart here.
# B1: anti-human 4-1BB clone 20H4.9 human IgG4 (antibody, V domains shown)
# VH: QVQLQQWGAGLLKPSETLSLTCAVYGGSFSGYYWSWIRQSPEKGLEWIGEINHGGYVTYNPSLESRVTISVDTSKNQFSLKLSSVTAADTAVYYCARDYGPGNYDWYFDLWGRGTLVTVSS
# VL: EIVLTQSPATLSLSPGERATLSCRASQSVSSYLAWYQQKPGQAPRLLIYDASNRATGIPARFSGSGSGTDFTLTISSLEPEDFAVYYCQQRSNWPPALTFCGGTKVEIKR
# Key:
# Experiment in all cases: cell-based or functional assay
# [1] = target: T1, human 4-1BB expressed on cells (Jurkat-hu4-1BB-NFκB-luc2 reporter cells; human T cells in PBMC) (human, UniProt Q07011 24-255)
# T1 sequence (Q07011 24-255): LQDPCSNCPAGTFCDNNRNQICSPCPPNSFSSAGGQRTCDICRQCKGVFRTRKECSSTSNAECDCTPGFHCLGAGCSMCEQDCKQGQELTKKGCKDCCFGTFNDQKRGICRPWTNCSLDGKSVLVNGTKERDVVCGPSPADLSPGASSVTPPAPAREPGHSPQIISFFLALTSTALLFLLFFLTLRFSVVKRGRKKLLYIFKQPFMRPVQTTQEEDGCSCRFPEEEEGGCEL
# [2] = target: T1, human 4-1BB expressed on cells …; parameters: unit not given beside the values
# [3] = target: T1, human 4-1BB expressed on cells …; remark: listed apart in the source
# [4] = target: T1, human 4-1BB expressed on cells …; remark: listed apart in the source
binder,measurement,setting,value
B1,"EC50 PBMC activation assay, % proliferating CD4, with NCI-N87 cells",[1],0.01 nM
same,"EC50 PBMC activation assay, % proliferating CD8, with NCI-N87 cells",[1],~0.03 nM
same,"AUC above background, PBMC activation assay, % proliferating CD4",[2],10
same,"AUC above background, PBMC activation assay, % proliferating CD8",[2],16
same,"EC50 of NFκB-activation-induced Luciferase activity, Jurkat-hu4-1BB-NFκB-luc2 reporter cells, with KPL-4 cells",[3],0.02 nM
same,"EC50 of NFκB-activation-induced Luciferase activity, Jurkat-hu4-1BB-NFκB-luc2 reporter cells, with NCI-N87 cells",[3],0.02 nM
same,"EC50 of NFκB-activation-induced Luciferase activity, Jurkat-hu4-1BB-NFκB-luc2 reporter cells, with SK-Br3 cells",[3],0.01 nM
same,"EC50 of NFκB-activation-induced Luciferase activity, Jurkat-hu4-1BB-NFκB-luc2 reporter cells, with NCI-N87 cells",[4],0.14 nM
